# Assay results reported in IntAct's records for PubMed 17498700.
# B1: Type-1 angiotensin II receptor (Homo sapiens), P30556 (parent)
# chain: MILNSSTEDGIKRIQDDCPKAGRHNYIFVMIPTLYSIIFVVGIFGNSLVVIVIYFYMKLKTVASVFLLNLALADLCFLLTLPLWAVYTAMEYRWPFGNYLCKIASASVSFNLYASVFLLTCLSIDRYLAIVHPMKSRLRRTMLVAKVTCIIIWLLAGLASLPAIIHRNVFFIENTNITVCAFHYESQNSTLPIGLGLTKNILGFLFPFLIILTSYTLIWKALKKAYEIQKNKPRNDDIFKIIMAIVLFFFFSWIPHQIFTFLDVLIQLGIIRDCRIADIVDTAMPITICIAYFNNCLNPLFYGFLGKKFKRYFLQLLKYIPPKAKSHSNLSTKMSTLSYRPSDNVSSSTKKPAPCFEVE
# Variants of: B1
# Conditions: with arrb1_human ARRB1, P49407
# Sequence of arrb1_human ARRB1, P49407 (P49407 whole entry): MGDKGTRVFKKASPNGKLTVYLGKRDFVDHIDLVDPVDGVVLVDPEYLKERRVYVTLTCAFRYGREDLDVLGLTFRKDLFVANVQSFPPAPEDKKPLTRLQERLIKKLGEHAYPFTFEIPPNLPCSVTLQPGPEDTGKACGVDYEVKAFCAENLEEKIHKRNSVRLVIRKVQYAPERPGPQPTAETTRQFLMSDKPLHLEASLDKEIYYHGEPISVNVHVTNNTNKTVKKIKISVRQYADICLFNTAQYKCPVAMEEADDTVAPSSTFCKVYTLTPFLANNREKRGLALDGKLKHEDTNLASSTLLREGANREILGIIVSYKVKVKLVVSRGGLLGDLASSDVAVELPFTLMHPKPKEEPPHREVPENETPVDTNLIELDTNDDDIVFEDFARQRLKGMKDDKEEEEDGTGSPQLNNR
row,effect of a mutation on the interaction,Variant
1,decreasing interaction,N111G

# Variants of: B1
# Conditions: with gnaq_human GNAQ
row,effect of a mutation on the interaction,Variant
1,increasing interaction,N111G
